According to article doi:10.1101/2023.12.22.573000:

Biological target: T1, RIG-I (recombinant) (human? (GeneID 23586), UniProt O95786 1-925)
T1 sequence: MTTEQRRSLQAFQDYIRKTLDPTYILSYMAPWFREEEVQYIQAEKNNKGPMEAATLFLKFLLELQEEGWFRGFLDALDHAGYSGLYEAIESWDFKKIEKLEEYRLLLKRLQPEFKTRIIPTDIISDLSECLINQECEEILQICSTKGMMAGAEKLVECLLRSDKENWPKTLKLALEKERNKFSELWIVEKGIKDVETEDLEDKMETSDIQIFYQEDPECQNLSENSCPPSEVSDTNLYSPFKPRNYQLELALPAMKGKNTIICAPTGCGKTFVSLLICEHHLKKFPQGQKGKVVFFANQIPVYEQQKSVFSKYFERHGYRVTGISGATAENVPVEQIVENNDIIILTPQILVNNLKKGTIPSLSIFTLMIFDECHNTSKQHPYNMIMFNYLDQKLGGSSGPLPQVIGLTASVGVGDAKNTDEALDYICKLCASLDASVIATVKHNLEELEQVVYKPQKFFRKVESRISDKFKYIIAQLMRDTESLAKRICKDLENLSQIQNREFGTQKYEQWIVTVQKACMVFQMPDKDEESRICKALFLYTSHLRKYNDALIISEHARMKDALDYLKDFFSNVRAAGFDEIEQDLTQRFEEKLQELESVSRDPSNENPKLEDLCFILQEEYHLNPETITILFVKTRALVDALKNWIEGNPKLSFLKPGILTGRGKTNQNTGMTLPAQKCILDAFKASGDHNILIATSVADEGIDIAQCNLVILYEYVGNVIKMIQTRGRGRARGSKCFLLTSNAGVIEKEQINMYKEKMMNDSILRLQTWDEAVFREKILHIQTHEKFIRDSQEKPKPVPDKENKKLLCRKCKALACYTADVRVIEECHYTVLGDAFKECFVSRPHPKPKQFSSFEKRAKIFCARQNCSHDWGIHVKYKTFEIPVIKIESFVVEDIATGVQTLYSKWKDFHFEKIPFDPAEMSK
Assay: EMSA

B1: 5'-pppG synthetic 24 bp dsRNA (dsRNA)
RNA 1: GGCAAAAGCAGGGUGACAAAGACA
RNA 2: UGUCUUUGUCACCCUGCUUUUGCC
modifications: 5'-ppp on sense strand only
- Kd: 0.94 nM
